Results from publication PMC9040003 (Science (New York, N.Y.), 2022).

Tests used:
Type in all cases: binding, Arabidopsis thaliana
[1] = tested on: FER ectodomain (6×His-tagged); conditions: 6×His-tagged ectodomain purified from insect cells; biotinylated peptide
[2] = tested on: ANJ ectodomain (MBP-tagged); conditions: MBP-tagged ectodomain purified from Escherichia coli; biotinylated peptide
[3] = tested on: FER ectodomain (MBP-tagged); conditions: MBP-tagged ectodomain purified from Escherichia coli; biotinylated peptide
[4] = tested on: HERK1 ectodomain (6×His-tagged); conditions: 6×His-tagged ectodomain purified from insect cells; biotinylated peptide
[5] = tested on: ANJ ectodomain (6×His-tagged); conditions: 6×His-tagged ectodomain purified from insect cells; biotinylated peptide
[6] = tested on: HERK1 ectodomain (MBP-tagged); conditions: MBP-tagged ectodomain purified from Escherichia coli; biotinylated peptide

B1: RALF16: RALF (rapid alkalinization factor) peptide, pollen tube–specific, Arabidopsis (peptide)
peptide: RTLGYGSIKGDRIPACGYKNPNSCVKQPVNHYHRGCEKITRCARDAARYTESFNVDDDESPIINLH
modifications: also: biotin, position not given here
bind: binding to FER ectodomain (pull-down) [1] | binding to ANJ ectodomain (pull-down) [2] | binding to FER ectodomain (pull-down) [3] | binding to HERK1 ectodomain (pull-down) [4] | binding to ANJ ectodomain (pull-down) [5] | binding to HERK1 ectodomain (pull-down) [6]
